B1: DVD530 DLL4 arm (antibody, V domains shown)
VH: EVQLQQSGPELEKPGASVKISCKASGYSFTGYNMNWVKQSNGKSLEWIGNIDPYFGGTNYNQKFKGKATLTVDKSSSTAYMQLKSLTSEDSAVYYCARNYDYDGGCFDYWGQGTTLTVSS
VL: QAVVTQESALTTSPGETVTLTCRSSTGAVTTSNYANWVQEKPDHLFTGLIGGTNNRAPGVPARFSGSLIGDKAALTITGAQTEDEAIYFCALWYSNHWVFGGGTKLTVLG
modifications: DVD-Ig inner
B2: DVD514 DLL4 arm (antibody, V domains shown)
VH: EVQLQQSGPELEKPGASVKISCKASGYSFTGYNMNWVKQSNGKSLEWIGNIDPYFGGTNYNQKFKGKATLTVDKSSSTAYMQLKSLTSEDSAVYYCARNYDYDGGCFDYWGQGTTLTVSS
VL: QAVVTQESALTTSPGETVTLTCRSSTGAVTTSNYANWVQEKPDHLFTGLIGGTNNRAPGVPARFSGSLIGDKAALTITGAQTEDEAIYFCALWYSNHWVFGGGTKLTVLG
modifications: DVD-Ig inner
B3: DVD518 DLL4 arm (antibody, V domains shown)
VH: EVQLQQSGPELEKPGASVKISCKASGYSFTGYNMNWVKQSNGKSLEWIGNIDPYFGGTNYNQKFKGKATLTVDKSSSTAYMQLKSLTSEDSAVYYCARNYDYDGGCFDYWGQGTTLTVSS
VL: QAVVTQESALTTSPGETVTLTCRSSTGAVTTSNYANWVQEKPDHLFTGLIGGTNNRAPGVPARFSGSLIGDKAALTITGAQTEDEAIYFCALWYSNHWVFGGGTKLTVLG
modifications: DVD-Ig inner
B4: DVD524 DLL4 arm (antibody, V domains shown)
VH: EVQLQQSGPELEKPGASVKISCKASGYSFTGYNMNWVKQSNGKSLEWIGNIDPYFGGTNYNQKFKGKATLTVDKSSSTAYMQLKSLTSEDSAVYYCARNYDYDGGCFDYWGQGTTLTVSS
VL: QAVVTQESALTTSPGETVTLTCRSSTGAVTTSNYANWVQEKPDHLFTGLIGGTNNRAPGVPARFSGSLIGDKAALTITGAQTEDEAIYFCALWYSNHWVFGGGTKLTVLG
modifications: DVD-Ig inner
B5: DVD528 DLL4 arm (antibody, V domains shown)
VH: EVQLQQSGPELEKPGASVKISCKASGYSFTGYNMNWVKQSNGKSLEWIGNIDPYFGGTNYNQKFKGKATLTVDKSSSTAYMQLKSLTSEDSAVYYCARNYDYDGGCFDYWGQGTTLTVSS
VL: QAVVTQESALTTSPGETVTLTCRSSTGAVTTSNYANWVQEKPDHLFTGLIGGTNNRAPGVPARFSGSLIGDKAALTITGAQTEDEAIYFCALWYSNHWVFGGGTKLTVLG
modifications: DVD-Ig inner
B6: DVD534 DLL4 arm (antibody, V domains shown)
VH: EVQLQQSGPELEKPGASVKISCKASGYSFTGYNMNWVKQSNGKSLEWIGNIDPYFGGTNYNQKFKGKATLTVDKSSSTAYMQLKSLTSEDSAVYYCARNYDYDGGCFDYWGQGTTLTVSS
VL: QAVVTQESALTTSPGETVTLTCRSSTGAVTTSNYANWVQEKPDHLFTGLIGGTNNRAPGVPARFSGSLIGDKAALTITGAQTEDEAIYFCALWYSNHWVFGGGTKLTVLG
modifications: DVD-Ig inner
B7: DVD520 DLL4 arm (antibody, V domains shown)
VH: EVQLQQSGPELEKPGASVKISCKASGYSFTGYNMNWVKQSNGKSLEWIGNIDPYFGGTNYNQKFKGKATLTVDKSSSTAYMQLKSLTSEDSAVYYCARNYDYDGGCFDYWGQGTTLTVSS
VL: QAVVTQESALTTSPGETVTLTCRSSTGAVTTSNYANWVQEKPDHLFTGLIGGTNNRAPGVPARFSGSLIGDKAALTITGAQTEDEAIYFCALWYSNHWVFGGGTKLTVLG
modifications: DVD-Ig inner
B8: DVD531 DLL4 arm (antibody, V domains shown)
VH: EVQLQQSGPELEKPGASVKISCKASGYSFTGYNMNWVKQSNGKSLEWIGNIDPYFGGTNYNQKFKGKATLTVDKSSSTAYMQLKSLTSEDSAVYYCARNYDYDGGCFDYWGQGTTLTVSS
VL: QAVVTQESALTTSPGETVTLTCRSSTGAVTTSNYANWVQEKPDHLFTGLIGGTNNRAPGVPARFSGSLIGDKAALTITGAQTEDEAIYFCALWYSNHWVFGGGTKLTVLG
modifications: DVD-Ig outer
B9: DVD447 DLL4 arm (antibody, V domains shown)
VH: QVQLVQSGAEVKKPGASVKISCKASGYSFTAYYIHWVKQAPGQGLEWIGYISSYNGATNYNQKFKGRVTFTTDTSTSTAYMELRSLRSDDTAVYYCARDYDYDVGMDYWGQGTLVTVSS
VL: DIVMTQSPDSLAVSLGERATISCRASESVDNYGISFMKWFQQKPGQPPKLLIYAASNQGSGVPDRFSGSGSGTDFTLTISSLQAEDVAVYYCQQSKEVPWTFGGGTKVEIKR
modifications: DVD-Ig outer
B10: DVD444 DLL4 arm (antibody, V domains shown)
VH: QVQLVQSGAEVKKPGASVKISCKASGYSFTAYYIHWVKQAPGQGLEWIGYISSYNGATNYNQKFKGRVTFTTDTSTSTAYMELRSLRSDDTAVYYCARDYDYDVGMDYWGQGTLVTVSS
VL: DIVMTQSPDSLAVSLGERATISCRASESVDNYGISFMKWFQQKPGQPPKLLIYAASNQGSGVPDRFSGSGSGTDFTLTISSLQAEDVAVYYCQQSKEVPWTFGGGTKVEIKR
modifications: DVD-Ig inner
B11: DVD457 DLL4 arm (antibody, V domains shown)
VH: QVQLVQSGAEVKKPGASVKISCKASGYSFTAYYIHWVKQAPGQGLEWIGYISSYNGATNYNQKFKGRVTFTTDTSTSTAYMELRSLRSDDTAVYYCARDYDYDVGMDYWGQGTLVTVSS
VL: DIVMTQSPDSLAVSLGERATISCRASESVDNYGISFMKWFQQKPGQPPKLLIYAASNQGSGVPDRFSGSGSGTDFTLTISSLQAEDVAVYYCQQSKEVPWTFGGGTKVEIKR
modifications: DVD-Ig outer
B12: DVD453 DLL4 arm (antibody, V domains shown)
VH: QVQLVQSGAEVKKPGASVKISCKASGYSFTAYYIHWVKQAPGQGLEWIGYISSYNGATNYNQKFKGRVTFTTDTSTSTAYMELRSLRSDDTAVYYCARDYDYDVGMDYWGQGTLVTVSS
VL: DIVMTQSPDSLAVSLGERATISCRASESVDNYGISFMKWFQQKPGQPPKLLIYAASNQGSGVPDRFSGSGSGTDFTLTISSLQAEDVAVYYCQQSKEVPWTFGGGTKVEIKR
modifications: DVD-Ig outer
B13: DVD455 DLL4 arm (antibody, V domains shown)
VH: QVQLVQSGAEVKKPGASVKISCKASGYSFTAYYIHWVKQAPGQGLEWIGYISSYNGATNYNQKFKGRVTFTTDTSTSTAYMELRSLRSDDTAVYYCARDYDYDVGMDYWGQGTLVTVSS
VL: DIVMTQSPDSLAVSLGERATISCRASESVDNYGISFMKWFQQKPGQPPKLLIYAASNQGSGVPDRFSGSGSGTDFTLTISSLQAEDVAVYYCQQSKEVPWTFGGGTKVEIKR
modifications: DVD-Ig outer
B14: DVD451 DLL4 arm (antibody, V domains shown)
VH: QVQLVQSGAEVKKPGASVKISCKASGYSFTAYYIHWVKQAPGQGLEWIGYISSYNGATNYNQKFKGRVTFTTDTSTSTAYMELRSLRSDDTAVYYCARDYDYDVGMDYWGQGTLVTVSS
VL: DIVMTQSPDSLAVSLGERATISCRASESVDNYGISFMKWFQQKPGQPPKLLIYAASNQGSGVPDRFSGSGSGTDFTLTISSLQAEDVAVYYCQQSKEVPWTFGGGTKVEIKR
modifications: DVD-Ig outer
B15: DVD506 DLL4 arm (antibody, V domains shown)
VH: EVQLQQSGPELVKPGASVKMSCKASGYTFTSYVINWVKQKPGQGLEWIGLINPYNDGTKYNEKFKVKATLTSDKSSSTAYMELSSLTSEDSAVYYCASYYYGSRYYFDYWGQGTTLTVSS
VL: DIQMTQSSSYLSVSLGGRVTITCKASDHINNWLAWYQQKPGNAPRLLISGATSLETGVPSRFSGSGSGKDYTLSITSLQTEDVATYYCQQYWSIPLTFGAGTKLELKR
modifications: DVD-Ig inner
B16: DVD496 DLL4 arm (antibody, V domains shown)
VH: EVQLQQSGPELVKPGASVKMSCKASGYTFTSYVINWVKQKPGQGLEWIGLINPYNDGTKYNEKFKVKATLTSDKSSSTAYMELSSLTSEDSAVYYCASYYYGSRYYFDYWGQGTTLTVSS
VL: DIQMTQSSSYLSVSLGGRVTITCKASDHINNWLAWYQQKPGNAPRLLISGATSLETGVPSRFSGSGSGKDYTLSITSLQTEDVATYYCQQYWSIPLTFGAGTKLELKR
modifications: DVD-Ig inner
B17: DVD494 DLL4 arm (antibody, V domains shown)
VH: EVQLQQSGPELVKPGASVKMSCKASGYTFTSYVINWVKQKPGQGLEWIGLINPYNDGTKYNEKFKVKATLTSDKSSSTAYMELSSLTSEDSAVYYCASYYYGSRYYFDYWGQGTTLTVSS
VL: DIQMTQSSSYLSVSLGGRVTITCKASDHINNWLAWYQQKPGNAPRLLISGATSLETGVPSRFSGSGSGKDYTLSITSLQTEDVATYYCQQYWSIPLTFGAGTKLELKR
modifications: DVD-Ig inner
B18: DVD499 DLL4 arm (antibody, V domains shown)
VH: EVQLQQSGPELVKPGASVKMSCKASGYTFTSYVINWVKQKPGQGLEWIGLINPYNDGTKYNEKFKVKATLTSDKSSSTAYMELSSLTSEDSAVYYCASYYYGSRYYFDYWGQGTTLTVSS
VL: DIQMTQSSSYLSVSLGGRVTITCKASDHINNWLAWYQQKPGNAPRLLISGATSLETGVPSRFSGSGSGKDYTLSITSLQTEDVATYYCQQYWSIPLTFGAGTKLELKR
modifications: DVD-Ig outer
B19: DVD490 DLL4 arm (antibody, V domains shown)
VH: EVQLQQSGPELVKPGASVKMSCKASGYTFTSYVINWVKQKPGQGLEWIGLINPYNDGTKYNEKFKVKATLTSDKSSSTAYMELSSLTSEDSAVYYCASYYYGSRYYFDYWGQGTTLTVSS
VL: DIQMTQSSSYLSVSLGGRVTITCKASDHINNWLAWYQQKPGNAPRLLISGATSLETGVPSRFSGSGSGKDYTLSITSLQTEDVATYYCQQYWSIPLTFGAGTKLELKR
modifications: DVD-Ig inner
B20: DVD508 DLL4 arm (antibody, V domains shown)
VH: EVQLQQSGPELVKPGASVKMSCKASGYTFTSYVINWVKQKPGQGLEWIGLINPYNDGTKYNEKFKVKATLTSDKSSSTAYMELSSLTSEDSAVYYCASYYYGSRYYFDYWGQGTTLTVSS
VL: DIQMTQSSSYLSVSLGGRVTITCKASDHINNWLAWYQQKPGNAPRLLISGATSLETGVPSRFSGSGSGKDYTLSITSLQTEDVATYYCQQYWSIPLTFGAGTKLELKR
modifications: DVD-Ig inner
B21: DVD478 DLL4 arm (antibody)
chain 1: EVQLVESGGGLVQPGGSLRLSCAASGFTFTDNWISWVRQAPGKGLEWVGYISPNSGFTYYADSVKGRFTISADTSKNTAYLQMNSLRAEDTAVYYCARDNFGGYFDYWGQGTLVTVSS
chain 2: DIQMTQSPSSLSASVGDRVTITCRASQDVSTAVAWYQQKPGKAPKLLIYSASFLYSGVPSRFSGSGSGTDFTLTISSLQPEDFATTYYCQQSYTGTVTFGQGTKVEIKR
modifications: DVD-Ig inner

This is an account of results in US9029508 (dated 2015).

Sequence of DLL4 (Q9NR61 27-524): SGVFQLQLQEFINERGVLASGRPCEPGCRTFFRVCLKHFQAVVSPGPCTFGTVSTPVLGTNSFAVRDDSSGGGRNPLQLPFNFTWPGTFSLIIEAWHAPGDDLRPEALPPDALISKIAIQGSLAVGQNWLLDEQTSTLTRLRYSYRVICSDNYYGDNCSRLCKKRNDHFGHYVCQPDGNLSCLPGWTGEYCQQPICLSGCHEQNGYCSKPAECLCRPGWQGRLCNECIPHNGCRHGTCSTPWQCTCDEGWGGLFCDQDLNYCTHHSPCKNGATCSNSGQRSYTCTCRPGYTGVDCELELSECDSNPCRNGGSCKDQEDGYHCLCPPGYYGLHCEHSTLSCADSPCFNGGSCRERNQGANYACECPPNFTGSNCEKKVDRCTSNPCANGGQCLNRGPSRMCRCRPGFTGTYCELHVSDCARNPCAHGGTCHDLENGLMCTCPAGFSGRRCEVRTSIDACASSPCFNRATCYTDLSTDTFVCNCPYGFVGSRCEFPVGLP

The assay addresses DLL4 (human, UniProt Q9NR61). Nature of the assay: ELISA. For orientation: An ELISA detects its analyte on a solid surface through an enzyme-linked reagent.
The term EC50 denotes the concentration giving half of the maximal effect. The low end stands for greater potency, the high end for weaker potency. Molecule B1 came in with an EC50 of 0.22 nM. Next, B2: 21.1 nM. Regarding B3, the half-maximal effective concentration (EC50) came out at 5.9 nM. B4 showed an EC50 of 0.22 nM. Regarding B5, the EC50 was 0.81 nM. B6 displayed an EC50 of 0.47 nM.

Molecule B7 registered an EC50 of 17.3 nM. Take B8: the EC50 came out at 0.57 nM. As for B9, the EC50 is 0.12 nM. Next, B10: 30.5 nM; B11: 0.13 nM; B12: 0.09 nM. Next, B13: 0.24 nM; B14: 0.4 nM; B15: 0.32 nM. The molecule B16 displayed an EC50 of 5.59 nM.

The molecule B17 registered an EC50 of 39.5 nM. In turn, B18 gave an EC50 of 0.09 nM. With B19 the figure was 9.27 nM; with B20, 0.61 nM; with B21, 2.53 nM.
